According to PMC8808280 (Nature, 2021):

Biological target: T1, Receptor-associated protein (RAP) (human, UniProt P30533 35-353)
T1 sequence (looked up): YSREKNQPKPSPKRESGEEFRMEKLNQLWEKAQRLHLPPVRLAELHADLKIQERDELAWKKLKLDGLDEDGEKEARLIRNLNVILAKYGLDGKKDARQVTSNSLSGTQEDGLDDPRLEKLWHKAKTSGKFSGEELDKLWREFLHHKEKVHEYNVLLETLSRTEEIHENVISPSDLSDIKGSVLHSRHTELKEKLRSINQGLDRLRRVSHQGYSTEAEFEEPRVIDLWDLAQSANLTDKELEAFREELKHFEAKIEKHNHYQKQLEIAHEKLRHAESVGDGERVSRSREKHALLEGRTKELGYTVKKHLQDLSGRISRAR
Experiment: BLI

B1: ApoER2 isoform 1 LBD-Fc fusion protein (Fc fusion)
chain: not shown
binding result: binds
